From paper PMC7096766

B1: apt15-rssp (tba15-rssp) (structured_DNA)
DNA: TTTTTTGGTTGGTGTGGTTGG
modifications: 5'-C6-NH2, DBCO; conjugated by azide-DBCO cycloaddition to spider silk protein eADF4(C16)
B2: apt29-rssp (tba29-rssp) (structured_DNA)
DNA: TTTTTTAGTCCGTGGTAGGGCAGGTTGGGGTGACT
modifications: 5'-C6-NH2, DBCO; conjugated by azide-DBCO cycloaddition to spider silk protein eADF4(C16)

Target: human alpha-thrombin (Homo sapiens, UniProt P00734;P00734 328-363;364-622)
Assay: SEC mobility shift

Binder | binding result
B1 | binds
B2 | binds
